Reference: patent US20230183713A1, “SITE-SPECIFIC RECOMBINASES FOR EFFICIENT AND SPECIFIC GENOME EDITING” (TECHNISCHE UNIVERSITÄt DRESDEN, published 2023)

Assays:
[1] = target: T1, Cre recombinase monomer with Q311R mutation
T1 chain: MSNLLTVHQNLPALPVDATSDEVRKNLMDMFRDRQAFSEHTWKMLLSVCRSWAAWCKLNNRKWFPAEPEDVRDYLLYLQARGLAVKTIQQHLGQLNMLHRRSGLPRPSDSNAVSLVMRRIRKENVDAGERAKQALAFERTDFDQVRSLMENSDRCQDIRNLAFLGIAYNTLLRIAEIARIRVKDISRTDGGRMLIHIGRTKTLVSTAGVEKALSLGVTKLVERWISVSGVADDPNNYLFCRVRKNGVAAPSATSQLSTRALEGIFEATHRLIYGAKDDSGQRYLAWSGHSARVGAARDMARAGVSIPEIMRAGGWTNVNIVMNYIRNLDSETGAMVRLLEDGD

[2] = target: T2, Cre recombinase monomer with W315C mutation
T2 chain: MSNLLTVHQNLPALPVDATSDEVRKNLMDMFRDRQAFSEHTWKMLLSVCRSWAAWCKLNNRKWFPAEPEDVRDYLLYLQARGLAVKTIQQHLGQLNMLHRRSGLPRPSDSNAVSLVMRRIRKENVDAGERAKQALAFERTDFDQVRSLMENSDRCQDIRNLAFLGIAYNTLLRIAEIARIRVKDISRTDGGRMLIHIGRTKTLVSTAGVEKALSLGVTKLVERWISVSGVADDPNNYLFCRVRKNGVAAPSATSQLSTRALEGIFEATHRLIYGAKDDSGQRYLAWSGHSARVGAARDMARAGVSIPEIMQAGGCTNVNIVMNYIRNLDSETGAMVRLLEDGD

[3] = target: T3, Cre recombinase monomer with W315N mutation
T3 chain: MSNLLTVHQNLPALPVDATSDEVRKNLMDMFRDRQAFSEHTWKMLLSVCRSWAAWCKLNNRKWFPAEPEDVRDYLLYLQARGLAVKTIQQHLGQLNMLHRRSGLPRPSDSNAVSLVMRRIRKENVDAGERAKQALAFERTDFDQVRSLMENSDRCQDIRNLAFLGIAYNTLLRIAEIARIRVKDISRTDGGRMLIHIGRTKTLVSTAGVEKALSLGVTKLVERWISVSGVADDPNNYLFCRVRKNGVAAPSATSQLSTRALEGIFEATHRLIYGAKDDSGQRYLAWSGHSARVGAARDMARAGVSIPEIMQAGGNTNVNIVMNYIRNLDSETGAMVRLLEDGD

[4] = target: T4, Cre recombinase monomer with R292A mutation
T4 chain: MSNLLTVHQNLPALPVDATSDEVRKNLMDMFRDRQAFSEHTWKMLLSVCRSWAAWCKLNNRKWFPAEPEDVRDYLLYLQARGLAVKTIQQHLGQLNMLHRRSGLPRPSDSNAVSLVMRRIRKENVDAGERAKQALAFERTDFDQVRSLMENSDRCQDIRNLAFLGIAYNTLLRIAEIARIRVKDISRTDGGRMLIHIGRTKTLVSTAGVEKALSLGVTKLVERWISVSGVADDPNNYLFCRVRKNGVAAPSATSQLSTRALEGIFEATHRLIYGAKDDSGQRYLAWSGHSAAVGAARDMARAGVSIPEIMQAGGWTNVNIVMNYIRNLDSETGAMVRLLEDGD

[5] = target: T5, Cre recombinase monomer with Y324S mutation
T5 chain: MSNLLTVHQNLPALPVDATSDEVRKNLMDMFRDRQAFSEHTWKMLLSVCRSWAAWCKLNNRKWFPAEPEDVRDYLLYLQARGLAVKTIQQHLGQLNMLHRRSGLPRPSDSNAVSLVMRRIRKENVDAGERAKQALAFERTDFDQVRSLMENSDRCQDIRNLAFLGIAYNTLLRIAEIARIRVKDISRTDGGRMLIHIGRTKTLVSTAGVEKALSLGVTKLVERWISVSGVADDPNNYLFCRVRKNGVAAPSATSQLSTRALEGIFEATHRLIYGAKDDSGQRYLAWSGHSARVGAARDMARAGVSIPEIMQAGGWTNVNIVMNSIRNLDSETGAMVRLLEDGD

[6] = target: T6, Cre recombinase monomer with Y324I mutation
T6 chain: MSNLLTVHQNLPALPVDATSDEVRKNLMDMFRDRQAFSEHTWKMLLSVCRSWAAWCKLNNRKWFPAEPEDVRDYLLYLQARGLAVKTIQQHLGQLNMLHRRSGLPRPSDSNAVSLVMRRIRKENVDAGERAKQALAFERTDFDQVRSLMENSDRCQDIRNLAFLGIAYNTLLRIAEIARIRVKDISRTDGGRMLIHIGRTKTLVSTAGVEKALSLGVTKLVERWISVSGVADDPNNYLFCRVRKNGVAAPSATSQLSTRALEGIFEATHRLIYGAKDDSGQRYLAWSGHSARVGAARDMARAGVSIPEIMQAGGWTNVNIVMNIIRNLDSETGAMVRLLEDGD

[7] = target: T7, Cre recombinase monomer with K201Q mutation
T7 chain: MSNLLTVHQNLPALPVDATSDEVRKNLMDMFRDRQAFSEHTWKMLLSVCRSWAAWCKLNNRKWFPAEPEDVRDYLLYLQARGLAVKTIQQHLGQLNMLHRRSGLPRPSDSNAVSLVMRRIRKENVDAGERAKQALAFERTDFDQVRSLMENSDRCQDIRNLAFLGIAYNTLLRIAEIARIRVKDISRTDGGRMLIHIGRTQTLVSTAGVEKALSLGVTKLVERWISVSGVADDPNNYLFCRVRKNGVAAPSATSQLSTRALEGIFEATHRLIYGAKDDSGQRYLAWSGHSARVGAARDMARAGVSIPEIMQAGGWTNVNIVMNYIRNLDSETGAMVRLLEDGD

[8] = target: T8, Cre recombinase monomer with Y324N mutation
T8 chain: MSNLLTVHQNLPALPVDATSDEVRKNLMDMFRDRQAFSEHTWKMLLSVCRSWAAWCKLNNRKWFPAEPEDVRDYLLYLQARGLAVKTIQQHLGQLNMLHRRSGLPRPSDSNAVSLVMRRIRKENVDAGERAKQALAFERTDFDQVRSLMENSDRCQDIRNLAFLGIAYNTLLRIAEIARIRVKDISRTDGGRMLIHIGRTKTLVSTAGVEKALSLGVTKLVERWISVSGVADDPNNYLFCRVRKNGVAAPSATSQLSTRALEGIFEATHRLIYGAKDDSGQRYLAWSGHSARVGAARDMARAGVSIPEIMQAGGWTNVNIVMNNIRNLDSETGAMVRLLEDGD

[9] = target: T9, Cre recombinase monomer with Y324T mutation
T9 chain: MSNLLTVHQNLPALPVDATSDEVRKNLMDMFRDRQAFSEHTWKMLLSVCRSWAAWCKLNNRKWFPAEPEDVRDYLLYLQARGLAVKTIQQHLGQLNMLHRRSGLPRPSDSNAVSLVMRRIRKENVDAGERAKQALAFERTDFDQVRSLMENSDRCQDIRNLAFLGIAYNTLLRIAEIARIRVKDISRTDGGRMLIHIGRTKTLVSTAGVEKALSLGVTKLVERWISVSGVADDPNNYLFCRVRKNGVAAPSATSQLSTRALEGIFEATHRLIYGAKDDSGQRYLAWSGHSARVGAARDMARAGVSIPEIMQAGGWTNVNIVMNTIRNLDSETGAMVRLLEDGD

[10] = target: T10, Cre recombinase monomer with Y324R mutation
T10 chain: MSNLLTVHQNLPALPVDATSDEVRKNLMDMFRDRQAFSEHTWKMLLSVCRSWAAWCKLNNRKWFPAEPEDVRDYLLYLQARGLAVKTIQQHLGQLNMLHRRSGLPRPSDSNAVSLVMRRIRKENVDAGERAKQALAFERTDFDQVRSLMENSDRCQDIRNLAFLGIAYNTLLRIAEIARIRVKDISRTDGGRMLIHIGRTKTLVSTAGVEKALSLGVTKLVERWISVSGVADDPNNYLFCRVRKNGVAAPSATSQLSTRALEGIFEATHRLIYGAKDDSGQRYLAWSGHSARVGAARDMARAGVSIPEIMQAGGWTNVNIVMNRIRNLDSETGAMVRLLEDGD

B1: Cre recombinase monomer with H289W mutation (protein)
chain: MSNLLTVHQNLPALPVDATSDEVRKNLMDMFRDRQAFSEHTWKMLLSVCRSWAAWCKLNNRKWFPAEPEDVRDYLLYLQARGLAVKTIQQHLGQLNMLHRRSGLPRPSDSNAVSLVMRRIRKENVDAGERAKQALAFERTDFDQVRSLMENSDRCQDIRNLAFLGIAYNTLLRIAEIARIRVKDISRTDGGRMLIHIGRTKTLVSTAGVEKALSLGVTKLVERWISVSGVADDPNNYLFCRVRKNGVAAPSATSQLSTRALEGIFEATHRLIYGAKDDSGQRYLAWSGWSARVGAARDMARAGVSIPEIMQAGGWTNVNIVMNYIRNLDSETGAMVRLLEDGD
Median dimer activity (recombination on loxP) [1]: 95% | Median dimer activity (recombination on loxP) [2]: 87%

B2: Cre recombinase monomer with Q133H mutation (protein)
chain: MSNLLTVHQNLPALPVDATSDEVRKNLMDMFRDRQAFSEHTWKMLLSVCRSWAAWCKLNNRKWFPAEPEDVRDYLLYLQARGLAVKTIQQHLGQLNMLHRRSGLPRPSDSNAVSLVMRRIRKENVDAGERAKHALAFERTDFDQVRSLMENSDRCQDIRNLAFLGIAYNTLLRIAEIARIRVKDISRTDGGRMLIHIGRTKTLVSTAGVEKALSLGVTKLVERWISVSGVADDPNNYLFCRVRKNGVAAPSATSQLSTRALEGIFEATHRLIYGAKDDSGQRYLAWSGHSARVGAARDMARAGVSIPEIMQAGGWTNVNIVMNYIRNLDSETGAMVRLLEDGD
Median dimer activity (recombination on loxP) [3]: 33% | Median dimer activity (recombination on loxP) [4]: 48% | Median dimer activity (recombination on loxP) [1]: 96%

B3: Cre recombinase monomer with W315E mutation (protein)
chain: MSNLLTVHQNLPALPVDATSDEVRKNLMDMFRDRQAFSEHTWKMLLSVCRSWAAWCKLNNRKWFPAEPEDVRDYLLYLQARGLAVKTIQQHLGQLNMLHRRSGLPRPSDSNAVSLVMRRIRKENVDAGERAKQALAFERTDFDQVRSLMENSDRCQDIRNLAFLGIAYNTLLRIAEIARIRVKDISRTDGGRMLIHIGRTKTLVSTAGVEKALSLGVTKLVERWISVSGVADDPNNYLFCRVRKNGVAAPSATSQLSTRALEGIFEATHRLIYGAKDDSGQRYLAWSGHSARVGAARDMARAGVSIPEIMQAGGETNVNIVMNYIRNLDSETGAMVRLLEDGD
Median dimer activity (recombination on loxP) [5]: 35%

B4: Cre recombinase monomer with R292E mutation (protein)
chain: MSNLLTVHQNLPALPVDATSDEVRKNLMDMFRDRQAFSEHTWKMLLSVCRSWAAWCKLNNRKWFPAEPEDVRDYLLYLQARGLAVKTIQQHLGQLNMLHRRSGLPRPSDSNAVSLVMRRIRKENVDAGERAKQALAFERTDFDQVRSLMENSDRCQDIRNLAFLGIAYNTLLRIAEIARIRVKDISRTDGGRMLIHIGRTKTLVSTAGVEKALSLGVTKLVERWISVSGVADDPNNYLFCRVRKNGVAAPSATSQLSTRALEGIFEATHRLIYGAKDDSGQRYLAWSGHSAEVGAARDMARAGVSIPEIMQAGGWTNVNIVMNYIRNLDSETGAMVRLLEDGD
Median dimer activity (recombination on loxP) [1]: 50% | Median dimer activity (recombination on loxP) [6]: 70%

B5: Cre recombinase monomer with E176W mutation (protein)
chain: MSNLLTVHQNLPALPVDATSDEVRKNLMDMFRDRQAFSEHTWKMLLSVCRSWAAWCKLNNRKWFPAEPEDVRDYLLYLQARGLAVKTIQQHLGQLNMLHRRSGLPRPSDSNAVSLVMRRIRKENVDAGERAKQALAFERTDFDQVRSLMENSDRCQDIRNLAFLGIAYNTLLRIAWIARIRVKDISRTDGGRMLIHIGRTKTLVSTAGVEKALSLGVTKLVERWISVSGVADDPNNYLFCRVRKNGVAAPSATSQLSTRALEGIFEATHRLIYGAKDDSGQRYLAWSGHSARVGAARDMARAGVSIPEIMQAGGWTNVNIVMNYIRNLDSETGAMVRLLEDGD
Median dimer activity (recombination on loxP) [7]: 28% | Median dimer activity (recombination on loxP) [1]: 90%

B6: Cre recombinase monomer with W315C mutation (protein)
chain: MSNLLTVHQNLPALPVDATSDEVRKNLMDMFRDRQAFSEHTWKMLLSVCRSWAAWCKLNNRKWFPAEPEDVRDYLLYLQARGLAVKTIQQHLGQLNMLHRRSGLPRPSDSNAVSLVMRRIRKENVDAGERAKQALAFERTDFDQVRSLMENSDRCQDIRNLAFLGIAYNTLLRIAEIARIRVKDISRTDGGRMLIHIGRTKTLVSTAGVEKALSLGVTKLVERWISVSGVADDPNNYLFCRVRKNGVAAPSATSQLSTRALEGIFEATHRLIYGAKDDSGQRYLAWSGHSARVGAARDMARAGVSIPEIMQAGGCTNVNIVMNYIRNLDSETGAMVRLLEDGD
Median dimer activity (recombination on loxP) [8]: 38% | Median dimer activity (recombination on loxP) [9]: 36% | Median dimer activity (recombination on loxP) [10]: 31%
